Source: publication PMC10318062 (Nature Communications, 2023)

B1: LY-CoV555 (sdFab) (Fab, V domains shown)
VH: QVQLVQSGAEVKKPGSSVKVSCKASGGTFSNYAISWVRQAPGQGLEWMGRIIPILGIANYAQKFQGRVTITADKSTSTAYMELSSLRSEDTAVYYCARGYYEARHYYYYYAMDVWGQGTAVTVSS
VL: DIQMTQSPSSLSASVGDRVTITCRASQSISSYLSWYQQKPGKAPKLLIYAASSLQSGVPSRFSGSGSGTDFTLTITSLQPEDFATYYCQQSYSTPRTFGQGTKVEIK
B2: AZD8895 (sdFab) (Fab, V domains shown)
VH: EVQLVQSGPEVKKPGTSVKVSCKASGFTFMSSAVQWVRQARGQRLEWIGWIVIGSGNTNYAQKFQERVTITRDMSTSTAYMELSSLRSEDTAVYYCAAPYCSSISCNDGFDIWGQGTMVTVSS
VL: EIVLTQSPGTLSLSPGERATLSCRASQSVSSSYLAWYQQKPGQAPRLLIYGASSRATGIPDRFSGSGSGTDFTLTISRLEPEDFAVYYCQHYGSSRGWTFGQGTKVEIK
B3: LY-CoV1404 (sdFab) (Fab, V domains shown)
VH: QITLKESGPTLVKPTQTLTLTCTFSGFSLSISGVGVGWLRQPPGKALEWLALIYWDDDKRYSPSLKSRLTISKDTSKNQVVLKMTNIDPVDTATYYCAHHSISTIFDHWGQGTLVTVSS
VL: QSALTQPASVSGSPGQSITISCTATSSDVGDYNYVSWYQQHPGKAPKLMIFEVSDRPSGISNRFSGSKSGNTASLTISGLQAEDEADYYCSSYTTSSAVFGGGTKLTVL
B4: CB6 (sdFab) (Fab, V domains shown)
VH: EVQLVESGGGLVQPGGSLRLSCAASGFTVSSNYMSWVRQAPGKGLEWVSVIYSGGSTFYADSVKGRFTISRDNSMNTLFLQMNSLRAEDTAVYYCARVLPMYGDYLDYWGQGTLVTVSS
VL: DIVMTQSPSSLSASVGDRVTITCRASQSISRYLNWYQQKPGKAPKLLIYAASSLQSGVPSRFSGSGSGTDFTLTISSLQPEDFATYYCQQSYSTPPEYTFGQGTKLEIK
B5: REGN10987 (sdFab) (Fab, V domains shown)
VH: QVQLVESGGGVVQPGRSLRLSCAASGFTFSNYAMYWVRQAPGKGLEWVAVISYDGSNKYYADSVKGRFTISRDNSKNTLYLQMNSLRTEDTAVYYCASGSDYGDYLLVYWGQGTLVTVSS
VL: QSALTQPASVSGSPGQSITISCTGTSSDVGGYNYVSWYQQHPGKAPKLMIYDVSKRPSGVSNRFSGSKSGNTASLTISGLQSEDEADYYCNSLTSISTWVFGGGTKLTVL
B6: REGN10933 (sdFab) (Fab, V domains shown)
VH: QVQLVESGGGLVKPGGSLRLSCAASGFTFSDYYMSWIRQAPGKGLEWVSYITYSGSTIYYADSVKGRFTISRDNAKSSLYLQMNSLRAEDTAVYYCARDRGTTMVPFDYWGQGTLVTVSS
VL: DIQMTQSPSSLSASVGDRVTITCQASQDITNYLNWYQQKPGKAPKLLIYAASNLETGVPSRFSGSGSGTDFTFTISGLQPEDIATYYCQQYDNLPLTFGGGTKVEIK

Target: SARS-CoV-2 hexaproline stabilized pre-fusion spike glycoprotein (S6P) (SARS-CoV-2, ancestral (Wuhan-Hu-1 …, UniProt P0DTC2, stabilised))
Experiment: AlphaScreen or HTRF
Conditions: one partner purified

Row | Binder | binding result
1 | B1 | binds
2 | B2 | binds
3 | B3 | binds
4 | B4 | binds
5 | B5 | binds
6 | B6 | binds
